# Reference: PMC3783652
# B1: 4ISIsYTSD10, sTyr7 sulfopeptide of CXCR4 (peptide)
# peptide: ISIYTSD
# HELM: PEPTIDE1{[ac].I.S.I.[O=C([C@H](Cc1ccc(OS(=O)(=O)O)cc1)N[*:1])[*:2]].T.S.D.[am]}$$$$V2.0
# SMILES: CC[C@H](C)[C@H](NC(C)=O)C(=O)N[C@@H](CO)C(=O)N[C@H](C(=O)N[C@@H](Cc1ccc(OS(=O)(=O)O)cc1)C(=O)N[C@H](C(=O)N[C@@H](CO)C(=O)N[C@@H](CC(=O)O)C(N)=O)[C@@H](C)O)[C@@H](C)CC
# B2: 9SDNsYTEE15, sTyr12 sulfopeptide of CXCR4 (peptide)
# peptide: SDNYTEE
# HELM: PEPTIDE1{[ac].S.D.N.[O=C([C@H](Cc1ccc(OS(=O)(=O)O)cc1)N[*:1])[*:2]].T.E.E.[am]}$$$$V2.0
# SMILES: CC(=O)N[C@@H](CO)C(=O)N[C@@H](CC(=O)O)C(=O)N[C@@H](CC(N)=O)C(=O)N[C@@H](Cc1ccc(OS(=O)(=O)O)cc1)C(=O)N[C@H](C(=O)N[C@@H](CCC(=O)O)C(=O)N[C@@H](CCC(=O)O)C(N)=O)[C@@H](C)O
# B3: 18SGDsYDSM24, sTyr21 sulfopeptide of CXCR4 (peptide)
# peptide: SGDYDSM
# HELM: PEPTIDE1{[ac].S.G.D.[O=C([C@H](Cc1ccc(OS(=O)(=O)O)cc1)N[*:1])[*:2]].D.S.M.[am]}$$$$V2.0
# SMILES: CSCC[C@H](NC(=O)[C@H](CO)NC(=O)[C@H](CC(=O)O)NC(=O)[C@H](Cc1ccc(OS(=O)(=O)O)cc1)NC(=O)[C@H](CC(=O)O)NC(=O)CNC(=O)[C@H](CO)NC(C)=O)C(N)=O
# Molecular target: CXCL12_(2), constitutively dimeric CXCL12 variant (locked dimer) (UniProt P48061)
# Test: NMR titration
row,Kd [µM],Binder
1,386,B1
2,332,"Ac-SDNYTEE-NH2 [9SDNYTEE15, unsulfated Tyr12 peptide of CXCR4]"
3,418,"Ac-ISIYTSD-NH2 [4ISIYTSD10, unsulfated Tyr7 peptide of CXCR4]"
4,266,B2
5,831,"Ac-SGDYDSM-NH2 [18SGDYDSM24, unsulfated Tyr21 peptide of CXCR4]"
6,211,B3
